Reference: the Human Domainome abundance scans (Beltran et al. 2025)

B1: Ras GTPase-activating protein 1, residues 281 to 341; numbered along this chain, P20936 (parent)
chain: RRRVRAILPYTKVPDTDEISFLKGDMFIVHNELEDGWMWVTNLRTDEQGLIVEDLVEEVGR

Variants of: B1
Assay: abundance fitness (aPCA) (normalised: wild type 0, dead -1); higher = more abundant; growth selection in yeast, the domain comes from the species named
Conditions: Homo sapiens

Abundance fitness, by site and new letter:
L55: W -0.165 | F 0.015 | H 0.059 | E -0.765 | G -0.348 | K 0.027 | A 0.032 | I -0.241 | M 0.005 | V -0.175 | R -0.034 | N -0.02 | P -0.925 | Y 0.034 | S -0.018 | D -0.394 | Q -0.033
V52: W -0.047 | P 0.04 | E -0.123 | R 0.043 | T 0.023 | I 0.022 | C 0.024 | H 0.029 | S 0.013 | A 0.072 | L 0.041 | Q 0.045 | K 0 | F 0.009 | D -0.121 | G 0.059 | M 0.031 | N 0.015
V56: R -0.846 | W -0.844 | H -0.93 | F -0.953 | L -0.711 | E -1.07 | N -0.874 | D -0.887 | T -0.013 | M -0.23 | P -0.778 | Y -0.982 | A -0.421 | G -0.85 | C -0.126 | S -0.73 | I -0.031 | K -0.741
E47: G -0.684 | V -0.375 | F -0.841 | T -0.263 | Y -0.77 | D -0.104 | L -0.417 | Q -0.135 | H -0.253 | N -0.428 | A -0.254 | C -0.192 | W -0.94 | P -0.993 | S -0.348 | M -0.257 | K -0.23
R61: D 0.039 | A 0.067 | E 0.234
L50: K 0.131 | F -0.126 | N -0.828 | V -0.043 | A -0.002 | S -0.07 | G -0.613 | P -0.504 | E -0.395 | T -0.04 | H -0.426 | W -0.07 | Y -0.05 | I -0.03 | D -0.958 | M 0.004 | R 0.142
I51: H -0.857 | Y -0.834 | A -0.481 | T -0.784 | E -0.899 | W -0.826 | V 0.023 | F -0.826 | R -0.786 | G -0.761 | L -0.157 | K -1.09 | D -0.814 | Q -1.07 | C -0.401 | P -0.912
E53: L -0.236 | C -0.079 | H -0.003 | I -0.052 | F -0.337 | P -0.031 | T 0.041 | K 0.01 | S 0.021 | Y -0.121 | Q -0.034 | A -0.027 | D -0.045 | G 0.03 | R -0.019 | V -0.053 | W -0.203
D54: I -0.338 | F -0.262 | P -0.175 | R 0.133 | N 0.013 | T 0.016 | K 0.037 | V -0.233 | H -0.225 | Q 0 | L -0.281 | Y -0.183 | E -0.069 | S 0.058 | W -0.184 | C -0.042
E57: T -0.117 | S -0.252 | W -0.921 | Q -0.083 | C -0.168 | R -0.197 | P -0.848 | K -0.471 | I -0.223 | F -0.527 | Y -0.357 | G -0.536 | H -0.224 | L -0.368 | N -0.447 | D -0.251 | V -0.107 | M -0.346 | A -0.232
D46: T -0.029 | Y -0.098 | E 0.066 | P -0.864 | C -0.002 | F -0.065 | A 0.05 | I -0.085 | W 0.029 | H 0.009 | K 0.085 | S -0.011 | M -0.014 | L -0.08 | N 0.004 | R 0.019 | V -0.044 | Q -0.11 | G 0.038
G49: P -0.846 | D -0.836 | Y -0.936 | H -0.825 | L -0.847 | F -0.754 | N -0.836 | E -0.766 | V -0.949 | W -1.09 | C -0.784 | R -1.04 | Q -1.01 | T -0.791 | S -0.979 | I -0.874 | A -0.926
T45: V -0.807 | Q -0.962 | K -1.05 | M -0.974 | F -0.796 | E -0.997 | A -0.735 | N -0.005 | C -0.771 | S -0.098 | D -0.762 | L -0.836 | G -0.851 | H -0.769 | P -0.988 | Y -0.841 | W -0.876
N42: A -0.436 | F -0.782 | H -0.381 | T -0.875 | Q -0.737 | G -0.802 | E -0.698 | L -0.296 | W -0.929 | D -0.585 | V -0.963 | Y -0.969 | C -0.1 | M -0.577 | P -0.874 | K -0.61 | I -0.893 | S -0.235
V59: A -0.027 | C -0.041 | Q -0.055 | T -0.113 | R -0.372 | L -0.066 | N -0.19 | I -0.04 | H -0.124 | E 0.011 | D -0.067 | W -0.137 | G -0.176 | K -0.451 | F -0.106 | M -0.027
T41: S -0.19 | W -0.378 | N -0.576 | V -0.289 | L -0.357 | P -0.973 | Y -0.312 | R -0.102 | M -0.362
R44: D -0.885 | N -0.224 | F -0.637 | M -0.287 | T -0.319 | V -0.708 | Q -0.314 | S -0.207 | L -0.905 | C -0.47 | P -0.9 | H -0.542 | E -0.442 | I -0.774 | Y -0.523 | K -0.648
G60: D -0.063 | I -0.299 | M -0.289 | E 0.003 | F -0.211 | L -0.227 | N -0.006 | Y -0.058 | S -0.068 | H -0.054 | A -0.071 | C -0.081 | P -0.023 | Q -0.328
Q48: F -0.122 | H -0.048 | D -0.038 | K 0.015 | A -0.073 | T 0.019 | P -0.503 | S -0.022 | R -0.051 | M -0.107 | W -0.32 | Y -0.08 | G -0.375 | C -0.043 | I -0.084 | E -0.06
E58: C -0.146 | F -0.285 | R -0.171 | Y -0.305 | K -0.156 | M -0.326 | V -0.201 | S -0.064 | Q -0.113 | T -0.023 | H -0.156 | W -0.106 | A -0.134 | L -0.348 | D -0.026 | G -0.156
L43: Y -0.35 | K -0.206 | C 0.007 | N -0.388 | S -0.19 | T -0.038 | W -0.748 | F -0.425 | I -0.012 | E -0.026 | R -0.437 | A -0.229 | V -0.044 | G -0.694 | M 0.005 | P -0.784 | H -0.612 | D -0.422
